In paper PMC9935906, “Network of hotspot interactions cluster tau amyloid folds” (Nature Communications, 2023):

B1: VQIVYA peptide (peptide)
peptide: VQIVYA
notes: Acetyl and amide caps and the supplier (GenScript) are stated only for the ZipperDB-predicted hexapeptides; likely the same here; also called VQIVYK alanine mutant at position six; source: peptide
B2: AQIVYK peptide (peptide)
peptide: AQIVYK
notes: Acetyl and amide caps and the supplier (GenScript) are stated only for the ZipperDB-predicted hexapeptides; likely the same here; also called VQIVYK alanine mutant at position one; source: peptide
B3: VAIVYK peptide (peptide)
peptide: VAIVYK
notes: Acetyl and amide caps and the supplier (GenScript) are stated only for the ZipperDB-predicted hexapeptides; likely the same here; also called VQIVYK alanine mutant at position two; source: peptide
B4: VQIVAK peptide (peptide)
peptide: VQIVAK
notes: Acetyl and amide caps and the supplier (GenScript) are stated only for the ZipperDB-predicted hexapeptides; likely the same here; also called VQIVYK alanine mutant at position five; source: peptide
B5: 275VQIINK280 peptide (peptide)
peptide: Ac-VQIINK-NH2
notes: source: synthetic peptide, bought: GenScript (≥95% purity)
B6: 306VQIVYK311 peptide (peptide)
peptide: Ac-VQIVYK-NH2
notes: also called WT; source: synthetic peptide, bought: GenScript (≥95% purity)

Target: the molecule itself
Assay: ThT fluorescence aggregation assay + TEM; peptide alone, 200 µM in 1X PBS + 25 µM ThT, 37 °C, one week, endpoint ThT; fibrils checked by negative-stain TEM; self-assembly into fibrils

Protein | binding result
B1 | binds
B2 | binds
B3 | binds
B4 | binds

Target: the molecule itself
Assay: ThT fluorescence aggregation assay + TEM; peptide alone, 1 mM in 1X PBS, neutral pH, one week at 37 °C with 900 RPM orbital shaking; endpoint ThT (15 µM) and negative-stain TEM; self-assembly into fibrils

Protein | binding result
B5 | binds
B6 | binds
